Experimental data as given in the supplement of paper PMC9170038.

Tested on: MS2 coat protein
Assay: apparent KD of MS2 coat protein; designed switch direction (-1 OFF switch, 1 ON switch): -1; higher = weaker reporter binding
Outline: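 Apparent KD, taken as the median over clusters for each design, was obtained by curve-fitting normalised cluster fluorescence. Designed RNA switches had been transcribed on Illumina chips by stalled E. coli RNA polymerase and titrated with SNAP-549-labelled MS2 coat protein, doubling from 0.7 or 1.5 nM to 3 µM.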

[1] = Eterna round: R95, input ligand: microRNA oligo, concentration not stated
[2] = input ligand: microRNA oligo, concentration not stated
[3] = Eterna round: R95, input ligand: FMN 200 uM
[4] = Eterna round: R95, input ligand: none

Row | Sequence | apparent KD of MS2 coat protein [1] [nM] | apparent KD of MS2 coat protein (input ligand: FMN 200 uM) [nM] | apparent KD of MS2 coat protein (input ligand: none) [nM] | further results
1 | CAUUUGUGAGGAUAUCAGGUGUGCUAGCGUACUGGUACAUCUGAGAAGGCACAUGAGGAUCACCCAUGUUCCUU [Mat - Exclusion 4 - Mod of JL - D36] (puzzle: Exclusion 4) | 12.8 | – | – | –
2 | CCAAAGCGAGGAUAUACUUGCGACCCAAGCGUGGAAGACAUACUUGAGGAUCACCCAAGUAGAAGGCGCGCCAA [Dibixela] (Eterna round: R97, puzzle: Exclusion 2) | – | 145 | 92 | –
3 | CCAAAGUCAGGAUAUGUGCGUUAAAAGCCGUACGUAACGACACAGAAGGGACAUGAGGAUCACCCAUGUUGGUG [Eternabot (Original) Solution 13] (Eterna round: R97, puzzle: Exclusion 4) | – | 96.7 | 979 | –
4 | CCAAGAAUAGGAUAUACAACAUGCCAGCUUCUUUACAUCGCACAUGAGGAUCACCCAUGUAGAAGGGUUCUCUG [Exclusion-2-#15] (Eterna round: R97, puzzle: Exclusion 2) | – | 182 | 209 | –
5 | CCAAGCUACUUCAUUAUCCACAUGAGGAUCACCCAUGUCUAGGCAAUUAUGACCUGCCCGUCAGGAGCUCGUCUUAU [Sensor-V1 #40] (Eterna round: R97, puzzle: Sensor, turn-off variant 1) | – | 35.1 | 28.7 | –
6 | CCAAGCUGUGUGAGGAUAUGCUGGUCGAAAGAUCAGCAGAAGGCACAUGAGGAUCACCCAUGUGAAAAGCUUGG [Mat - Exclusion 4 - JL Mod - D93] (puzzle: Brourd's mod of Exclusion 4) | 16.3 | – | – | –
7 | CCAAGCUUAUUCAUUAACAACAUGAGGAUCACCCAUGUAUAGGCAAUUAUGACUGGGCUCUUUAGUGCUCGUCUUAU [Sensor-V1 #25] (Eterna round: R97, puzzle: Sensor, turn-off variant 1) | – | 16.2 | 14.7 | –
8 | CCAAGCUUUUUCAUUAACAACAUGAGGAUCACCCAUGUGUAAGCUAUUAGGUUUGGGCUCUUUAGUGCUCGUCUUAU [JR_STOV1_Sub041] (Eterna round: R97, puzzle: Sensor, turn-off variant 1) | – | 14.5 | 13.5 | –
9 | CCACUUACUGAGGAUAUUGCAUCACCCGACUGAUAAGAAGGCAGAACAUGAGGAUCACCCAUGUGGGUACUCAC [Bingo-Bango-9] (Eterna round: R97, puzzle: Exclusion 6) | – | 207 | 155 | –
10 | CCAGACGCUGUGAGGAUAUGAAAAGGUGCUGCUUUUUAGAAGGCACAUGAGGAUCACCCAUGUGGUACCUCGGG [Eternabot (L1) Solution 20] (Eterna round: R97, puzzle: Brourd's mod of Exclusion 4) | – | 397 | 514 | –
11 | CCAGAGAGCGAAGGAUAUUCUGUUCAAUGGGUCGACCUAGACAUGAGGAUCACCCAUGUCGCCCGGGAGAAGGUCGCAAGGAUC [Eternabot solution 18] (Eterna round: R96, puzzle: Exclusion NG 2) | – | 18.7 | 18.4 | apparent KD of MS2 coat protein [2]: 13.3 nM
12 | CCAGCGUGUGUGAGGAUAUGCUGGUCCUUGGAUCAGCAGAAGGCACAUGAGGAUCACCCAUGUGAGAGCGUUGG [JL bmx4 3.36] (puzzle: Brourd's mod of Exclusion 4) | 20.7 | – | – | –
13 | CCAGGCAGUGUGAGGAUAUGCUGGUGCAUACAUCAGCAGAAGGCACAUGAGGAUCACCCAUGUGAAGAGCUUGG [Mat - Exclusion 4 - JL Mod - D98] (puzzle: Brourd's mod of Exclusion 4) | 16.9 | – | – | apparent KD of MS2 coat protein [3]: 179 nM; apparent KD of MS2 coat protein [4]: 27.5 nM
14 | CCAGUACGAGGAUAUACAUGAGGAUCACCCAUGUAAAUUGCCACGUCUUGGACGUCAUGUAGAAGGCGUUGGAA [EX3 C.1] (Eterna round: R97, puzzle: Exclusion 3) | – | 15.2 | 14.3 | –
15 | CCAUAUAACACAGGAUAUCAUCGCAACUGACGUUGAGAAGGGUGACAUGAGGAUCACCCAUGUGAUUUCUCAAUAUUAUACAUC [Prohibition 81 - Jieux - Exclusion NG 1] (Eterna round: R96, puzzle: Exclusion NG 1) | – | 1040 | 1110 | apparent KD of MS2 coat protein [2]: 661 nM
16 | CCAUAUAGGAGAGGAUAUACGCACCACUAACUAGUAGAAGGCUCACAUGAGGAUCACCCAUGUGAUUUCUCAAUAUUAUACAUC [Prohibition 73 - Jieux - Exclusion NG 1] (Eterna round: R96, puzzle: Exclusion NG 1) | – | 50.3 | 34.8 | apparent KD of MS2 coat protein [2]: 25.6 nM
17 | CCAUCCAGUGUGAGGAUAUGCUGGUCCUUGGAUCAGCAGAAGGCACAUGAGGAUCACCCAUGUGAAUAGGAUGG [Mat - Exclusion 4 - JL Mod - D85] (puzzle: Brourd's mod of Exclusion 4) | 18.9 | – | – | apparent KD of MS2 coat protein [3]: 153 nM; apparent KD of MS2 coat protein [4]: 24.1 nM

Row | Sequence | apparent KD of MS2 coat protein [1] [nM] | apparent KD of MS2 coat protein (input ligand: FMN 200 uM) [nM] | apparent KD of MS2 coat protein (input ligand: none) [nM] | further results
18 | CCAUCGUGUGUGAGGAUAUGCUGGUCCUUGGAUCAGCAGAAGGCACAUGAGGAUCACCCAUGUGAAAACGGUGG [Mat - Exclusion 4 - JL Mod - D86] (puzzle: Brourd's mod of Exclusion 4) | 22.3 | – | – | apparent KD of MS2 coat protein [3]: 67 nM; apparent KD of MS2 coat protein [4]: 23.9 nM
19 | CCAUCGUGUGUGAGGAUAUGCUGGUCCUUGGAUCAGCAGAAGGCACAUGAGGAUCACCCAUGUGAAGACGGUGG [JL bmx4 3.22] (puzzle: Brourd's mod of Exclusion 4) | 17.4 | – | – | apparent KD of MS2 coat protein [3]: 48.7 nM; apparent KD of MS2 coat protein [4]: 24.2 nM
20 | CCAUCUCUAGUAGGAUAUGUCGGAUAUGUUGUUGAGGUUCACCCAACGACGUCAAUGACAGAAGGACAGAAGGACUCUCGAUGC [pwkr exNG2 2xFMN 1xF5.6] (Eterna round: R96, puzzle: Exclusion NG 2) | – | 114 | 183 | apparent KD of MS2 coat protein [2]: 463 nM
21 | CCAUGUCCAGAGGAUAUGUAGCGGAUAACCGCAACAGAAGGCUGGACAUGAGGAUCACCCAUGUGCGCCUUCCA [Vege] (Eterna round: R97, puzzle: Exclusion 6) | – | 313 | 534 | –
22 | CCAUUCAGAGGAUAUGCGCAUAAAUAAAACUUUUUUUUUUAACAUGAGGAUCACCCAUGUAGAAGGCUGUAACC [Ex2 #45] (Eterna round: R97, puzzle: Exclusion 2) | – | 27.2 | 26.7 | –
23 | CCCAGUUAGGAAGGAUAUUGUACAUGAGGAUCACCCAUGUAAUAAAUGAGGAUCUCGGGUGUCUACAAGAAGGUCCGGAUAGGC [Ostracism 12 - Jieux - Exclusion NG 2] (Eterna round: R96, puzzle: Exclusion NG 2) | – | 104 | 46.4 | apparent KD of MS2 coat protein [2]: 38.7 nM
24 | CCCGCAGGCUUUUUGCUCGACAUGAGGAUCACCCAUGUUGUAUGGGUUGUGUGUGUGUGGUGCAUAUAUAUGGUCCU [-25.6, -50.1 kcal, A 16%] (Eterna round: R97, puzzle: Sensor, turn-off variant 1) | – | 313 | 469 | –
25 | CCCGCAGGUUUUUUGCUCGACAUGAGGAUCACCCAUGUUGCGUGGGUUGUGUGUGUGCGGUGUAUAUAUAUGGUCCU [-24.5, -48 kcal, A 14%] (Eterna round: R97, puzzle: Sensor, turn-off variant 1) | – | 305 | 371 | –
26 | CCCGCGGGCGCAGGAUAUACAUGAGGAUCACCCAUGUGCCGCGCAAGCGGCAGAGCGGACAACGGGUAGAAGGGCGCCCGCGGG [first try] (Eterna round: R96, puzzle: Exclusion NG 2) | – | 875 | 492 | apparent KD of MS2 coat protein [2]: 202 nM
27 | CCCGUGUGAGGAUAUCGUUCACUUGGCGAAAGUCGAGUGGACGAGAAGGUACAUGAGGAUCACCCAUGUGCGGG [-36.1, -35.4 kcal, A 24%] (Eterna round: R97, puzzle: Exclusion 4) | – | 155 | 134 | –
28 | CCCGUGUUAGGAUAUACGGCACACCUGCCAGCAGGUGUAUAGUAGAAGGAACAUGAGGAUCACCCAUGUAUAGC [Rizausma] (puzzle: Exclusion 4) | 34.6 | – | – | –
29 | CCCUCAAGCGAGGAUAUAAAUGCGCAUUCGCGGUUAGAAGGCGCUACAUGAGGAUCACCCAUGUAAUUAAAUGG [jl-ex6-4.51 ViennaUCT mod] (Eterna round: R97, puzzle: Exclusion 6) | – | 128 | 52.6 | –
30 | CCCUCACAUGAGGAUCACCCAUGUCAGGAUAUCUCAGUACGUCCACACGGACGCACCAAGAGAAGGGACAAAGC [Veara] (Eterna round: R97, puzzle: Exclusion 1) | – | 32.2 | 20 | –
31 | CCCUCACAUGAGGAUCACCCAUGUCAGGAUAUGCGCGGCCAAAAGGGCUGCUAAGGCAGCAGAAGGGACGUGAA [Eninored] (puzzle: Exclusion 1) | 14.4 | – | – | –
32 | CCCUCACAUGAGGAUCACCCAUGUCAGGAUAUUCGAGGCGCAAAUGCGCCAAAUGCAGGAAGAAGGGACGUGCC [Isqubemaor] (puzzle: Exclusion 1) | 14 | – | – | –
33 | CCGAAUAAGCAGGAUAUCGUAUCGGAAACGAUACGAGAAGGGUUAACAUGAGGAUCACCCAUGUUCCUUAACGG [Fiskers Ex 6 - 17] (puzzle: Exclusion 6) | 17.4 | – | – | –
34 | CCGACCCGAGGAUAUUGUACUGCUGACAUGAGGAUCACCCAUGUAUGUUAACUCGGCCGACGAGAAGGCGGCGACA [BotMod 3 - Jieux - Exclusion 5] (Eterna round: R97, puzzle: Exclusion 5) | – | 18.4 | 22.1 | –
